Assays:
[1] = molecular target: T1, consensus peptide substrate eEF2p (Ac-RKKYKFNEDTERRRFL)
T1 chain: RKKYKFNEDTERRRFL

[2] = molecular target: arrayed peptide library (198 peptide mixtures with a central fixed Ser/Thr phosphorylation site, degenerate flanking positions and a carboxy-terminal biotin tag)

B1: eEF2 kinase (Elongation Factor 2 Kinase) (protein)
chain: MADEDLIFRLEGVDGGQSPRAGHDGDSDGDSDDEEGYFICPITDDPSSNQNVNSKVNKYYSNLTKSERYSSSGSPANSFHFKEAWKHAIQKAKHMPDPWAEFHLEDIATERATRHRYNAVTGEWLDDEVLIKMASQPFGRGAMRECFRTKKLSNFLHAQQWKGASNYVAKRYIEPVDRDVYFEDVRLQMEAKLWGEEYNRHKPPKQVDIMQMCIIELKDRPGKPLFHLEHYIEGKYIKYNSNSGFVRDDNIRLTPQAFSHFTFERSGHQLIVVDIQGVGDLYTDPQIHTETGTDFGDGNLGVRGMALFFYSHACNRICESMGLAPFDLSPRERDAVNQNTKLLQSAKTILRGTEEKCGSPQVRTLSGSRPPLLRPLSENSGDENMSDVTFDSLPSSPSSATPHSQKLDHLHWPVFSDLDNMASRDHDHLDNHRESENSGDSGYPSEKRGELDDPEPREHGHSYSNRKYESDEDSLGSSGRVCVEKWNLLNSSRLHLPRASAVALEVQRLNALDLEKKIGKSILGKVHLAMVRYHEGGRFCEKGEEWDQESAVFHLEHAANLGELEAIVGLGLMYSQLPHHILADVSLKETEENKTKGFDYLLKAAEAGDRQSMILVARAFDSGQNLSPDRCQDWLEALHWYNTALEMTDCDEGGEYDGMQDEPRYMMLAREAEMLFTGGYGLEKDPQRSGDLYTQAAEAAMEAMKGRLANQYYQKAEEAWAQMEE
- fold increase in activity as compared to peptide MH-U [1]: 30 to 35 fold increase in activity
- phosphorylation at a single substrate concentration (100 µM) [1]: both peptides are efficiently phosphorylated by their respective kinases
- phosphorylation of peptide library (radiolabel incorporation) [2]: The kinase was able to efficiently phosphorylate peptides within the library

— patent US20110020842
